The values that follow are results of earlier work, collected in patent US20230285262A1, “Skin Compositions and Uses” (Stemetrix, Inc., priority 2013, published 2023).

The subject of series [1] is balb/c 3T3 cells.
In series [2] the test system is erythropoiesis-stimulating response. The settings on record: per mg of protein.
Series [3] has as its system FDC-P1 cells.
Series [4] relates to mouse HT-2 cells.
[5] abbreviates: commercial preparation judged 98% pure.

Take “EGF: human epidermal growth factor, commercial preparation judged 98% pure by PAGE and HPLC”: the ED50 in series [1] (setting [5]) was ≤ 0.1 ng/mL. Further, the specific activity in series [1] (corresponding to ED50) is given as ≥ 1×10^7 units/mg.

Take “Human urinary EPO: isolated human urinary EPO, international reference standard for EPO assays”: the specific activity result in series [2] is “about 70,000 U/mg”.

For “IGF-1: insulin-like growth factor-1, commercial preparation judged 98% pure by PAGE and HPLC”, the ED50 in series [3] (setting [5]) was 2.0 ng/mL. Also, in series [3] (corresponding to ED50), the specific activity is recorded as ≥ 5×10^5 units/mg.

Take “TGFβ3: human transforming growth factor beta-3, commercial preparation judged 98% pure by PAGE and HPLC”: the “expected ED50” value in series [4] (setting [5]) was 0.05 ng/mL. Further, the specific activity in series [4] (corresponding to ED50) is ≥ 2×10^7 units/mg.
